Source: US20130171217A1, “ENZYMATIC PERACID GENERATION FOR USE IN SKIN CARE PRODUCTS” (E I DU PONT DE NEMOURS AND COMPANY, priority 2010, published 2013)

Columns and labels:
[1] = Retention of perhydrolase on hair detected by hydrolase activity; assay type: binding; settings: for Activity in the first TWEEN®-20 wash / Activity retained on hair after 4 TWEEN® 20 washes / Activity unbound: hydrolase activity; for Activity in the first TWEEN®-20 wash: 1% TWEEN®-20; for Activity retained on hair after 4 TWEEN® 20 washes: 4 washes 1% TWEEN®-20 and 2 buffer washes; for Activity unbound: ~20 mg hair, binding 30 min; for 100% activity (hydrolase activity added to the tube): tube containing ~20 mg of hair, not subjected to washes
Procedure: For hair binding experiments brown hair tresses (International Hair Importers and Products, Glensdale N.Y.) were used. The hair was washed with 2% SLES, rinsed extensively with deionized water and air dried.
Around 20 mg of 1 cm brown hair fragments was added in a 1.8-mL microfuge tube. Hydrolase assay buffer (1.2 mL) as added to the hair followed by the addition of the perhydrolase enzymes to the solution. The enzymes were allowed to bind the hair for 30 min with gentle agitation (24 rpm) on an Adams Nutator (model 1105, Becton Dickinson, Franklin Lakes, N.J.). No enzyme controls, with hair and without hair, were included in the binding experiment to account for non-enzymatic hydrolysis of the pNPA hydrolase reagent. After the binding step, a 1.0-mL aliquot of the binding buffer was transferred to a new tube to quantitate the amount of unbound enzyme. Additional binding buffer was removed and the hair fragments were washed 4 times with 1 mL of 1% TWEEN®-20 in hydrolase buffer, followed by 2 washes with 1 mL each in hydrolase buffer. The hair fragments were then resuspended in 1 mL of hydrolase assay and the hydrolase activity that remained bound to the hair was measured. The C277S (“PAH”) variant of Thermotoga maritima perhydrolase (SEQ ID NO: 293) was used as a control for an un-targeted perhydrolase.

[2] = Perhydrolase activity of targeted hydrolases, ABTS assay; assay type: biochemical
Procedure: The ABTS assay was performed as follows: hair samples treated as described above were transferred to new 2-mL microcentrifuge tubes (Eppendorf Protein LoBind; Eppendorf North America, Hauppauge, N.Y.) To each tube was added 480 μL of PAH buffer ([…]), 14 μL of 39% hydrogen peroxide (Sigma 3410), and 6 μL triacetin (Sigma-Aldrich W200700). The perhydrolase reaction was allowed to proceed for 10 minutes at room temperature (˜22-25° C.). The reaction was stopped by diluting aliquots 10×, 100× and 1000× with 10 mM phosphoric acid. For detection 50 μL of 1 M acetic acid, 50 μL of 40 mg/mL potassium iodide, and 50 μL of 4 mM ABTS (2,2′-azino-bis(3-ethylbenzthiazoline-6-sulphonic acid; Sigma, St Louis, Mo.) were added to 50 μL of the above dilutions. Color was allowed to develop for 10 minutes and read in a spectrophotometer at 405 nm. Values from no-enzyme controls were subtracted to yield values attributable only to enzyme activity. A standard curve of OD 405 nm vs PAA concentration in ppm yielded a conversion factor of 8.75, such that an OD 405 nm of 1.0 corresponded to approximately 8.75 ppm PAA. This value was then multiplied by the appropriate dilution to arrive at the PAA concentration in the perhydrolase reaction.
The perhydrolase activity of the enzymes targeted to hair with a variety of targeting domains produced as described in Example 32 was measured with the ABTS assay.

B1: C277S-HC263: C277S variant of Thermotoga maritima perhydrolase fused via a flexible linker to hair-binding domain HC263 (protein)
chain: MAFFDLPLEELKKYRPERYEEKDFDEFWEETLAESEKFPLDPVFERMESHLKTVEAYDVTFSGYRGQRIKGWLLVPKLEEEKLPCVVQYIGYNGGRGFPHDWLFWPSMGYICFVMDTRGQGSGWLKGDTPDYPEGPVDPQYPGFMTRGILDPRTYYYRRVFTDAVRAVEAAASFPQVDQERIVIAGGSQGGGIALAVSALSKKAKALLCDVPFLCHFRRAVQLVDTHPYAEITNFLKTHRDKEEIVFRTLSYFDGVNFAARAKIPALFSVGLMDNISPPSTVFAAYNYYAGPKEIRIYPYNNHEGGGSFQAVEQVKFLKKLFEKGGPGSGGAGSPGSAGGPGSPSAQSQLPDKHSGLHERAPQRYGPEPEPEPEPIPEPPKEAPVVIEKPKPKPKPKPKPPAHDHKNQKETHQRHAAGSGGGGSPHHHHHH
Activity in the first TWEEN®-20 wash [1]: 9%
Activity retained on hair after 4 TWEEN® 20 washes [1]: 54%
Activity unbound [1]: 52%
100% activity (hydrolase activity added to the tube) [1]: 53 µmol/min
Specific perhydrolase activity ([2]; 1 m Na acetate at pH 5.5 instead of triacetin): The perhydrolase activity of the fusions of the Pseudomonas fluorescens hydrolase was assayed using 1 m Na acetate at pH 5.5 instead of triacetin at pH 7.5 Targeted Perhydrolases HC1121 (C277S-HC263; SEQ ID NO: 288) had no detectable perhydrolase activity with acetate as a substrate.

B2: C277S: non-targeted C277S variant of the Thermotoga maritima perhydrolase, un-targeted control (protein, listed as Thermotoga maritima)
chain: MAFFDLPLEELKKYRPERYEEKDFDEFWEETLAESEKFPLDPVFERMESHLKTVEAYDVTFSGYRGQRIKGWLLVPKLEEEKLPCVVQYIGYNGGRGFPHDWLFWPSMGYICFVMDTRGQGSGWLKGDTPDYPEGPVDPQYPGFMTRGILDPRTYYYRRVFTDAVRAVEAAASFPQVDQERIVIAGGSQGGGIALAVSALSKKAKALLCDVPFLCHFRRAVQLVDTHPYAEITNFLKTHRDKEEIVFRTLSYFDGVNFAARAKIPALFSVGLMDNISPPSTVFAAYNYYAGPKEIRIYPYNNHEGGGSFQAVEQVKFLKKLFEKG
Activity in the first TWEEN®-20 wash [1]: 5%
Activity retained on hair after 4 TWEEN® 20 washes [1]: 1%
Activity unbound [1]: 103%
100% activity (hydrolase activity added to the tube) [1]: 148 µmol/min

B3: SEQ ID NO: 323: S54V variant of the aryl esterase from Mycobacterium smegmatis fused to hair binding domain HC263 via a flexible linker (protein)
chain: MAKRILCFGDSLTWGWVPVEDGAPTERFAPDVRWTGVLAQQLGADFEVIEEGLVARTTNIDDPTDPRLNGASYLPSCLATHLPLDLVIIMLGTNDTKAYFRRTPLDIALGMSVLVTQVLTSAGGVGTTYPAPKVLVVSPPPLAPMPHPWFQLIFEGGEQKTTELARVYSALASFMKVPFFDAGSVISTDGVDGIHFTEANNRDLGVALAEQVRSLLGPGSGGAGSPGSAGGPGSPSAQSQLPDKHSGLHERAPQRYGPEPEPEPEPIPEPPKEAPVVIEKPKPKPKPKPKPPAHDHKNQKETHQRHAAGSGGGGSPHHHHHH
Specific perhydrolase activity ([2]; triacetin at pH 7.5): 270 µmol/mg/min
